In patent US7410949:

Experiments:
Assay in all cases: cell-based or functional assay
[1] = target: Y1R
[2] = target: T1, human NPY2 receptor (human) (UniProt P49146)
T1 sequence (looked up): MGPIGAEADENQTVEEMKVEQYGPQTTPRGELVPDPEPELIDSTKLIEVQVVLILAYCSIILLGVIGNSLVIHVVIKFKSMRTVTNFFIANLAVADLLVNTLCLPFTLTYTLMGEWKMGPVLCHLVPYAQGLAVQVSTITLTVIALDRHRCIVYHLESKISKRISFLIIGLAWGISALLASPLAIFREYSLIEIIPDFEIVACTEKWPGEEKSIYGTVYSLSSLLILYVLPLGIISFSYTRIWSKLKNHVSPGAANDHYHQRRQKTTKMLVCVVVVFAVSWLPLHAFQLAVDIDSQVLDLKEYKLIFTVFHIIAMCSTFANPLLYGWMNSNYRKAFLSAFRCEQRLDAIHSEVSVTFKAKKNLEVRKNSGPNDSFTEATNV

[3] = target: Y4R

Y1R, sequence (P25929 whole entry): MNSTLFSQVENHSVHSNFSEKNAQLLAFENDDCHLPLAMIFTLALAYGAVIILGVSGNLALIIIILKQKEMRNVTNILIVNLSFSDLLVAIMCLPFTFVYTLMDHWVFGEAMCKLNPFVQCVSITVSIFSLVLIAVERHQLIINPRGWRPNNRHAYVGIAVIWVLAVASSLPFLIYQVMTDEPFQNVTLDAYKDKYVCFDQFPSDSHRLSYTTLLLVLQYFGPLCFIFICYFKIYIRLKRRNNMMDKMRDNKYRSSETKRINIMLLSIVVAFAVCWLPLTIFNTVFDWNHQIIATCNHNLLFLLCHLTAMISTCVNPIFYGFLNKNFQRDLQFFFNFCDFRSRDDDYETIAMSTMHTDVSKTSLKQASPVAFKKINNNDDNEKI

Substance | Y1R EC50(nM) FLIPR [1] [nM] | Y2R EC50(nM) FLIPR [2] [nM] | Y2R IC50(nM) cAMP [2] [nM] | Y4R EC50(nM) FLIPR [3] [nM]
Ac-1,1-Aic-Nle-Pqa-Arg-His-Tyr-Leu-Asn-Leu-Val-Thr-Arg-Gln-Arg-Tyr-NH2 (Pk A) (peptide) | 1650 | 8.8 | 0.64 | > 5000
Ac-1,1-Aic-Nle-Pqa-Arg-His-Tyr-Leu-Asn-Leu-Val-Thr-Arg-Gln-Arg-Tyr-NH2 (Pk B) (peptide) | 2650 | 6 | 1 | > 5000
Ac-2,2-Aic-Nle-Pqa-Arg-His-Tyr-Leu-Asn-Leu-Val-Thr-Arg-Gln-Arg-Tyr-NH2 (peptide) | > 5000 |  |  | > 5000
Ac-Ach-Nle-Pqa-Arg-His-Tyr-Leu-Asn-Leu-Val-Thr-Arg-Gln-Arg-Tyr-NH2 (peptide) | > 5000 |  |  | > 5000
Ac-Acp-Nle-Pqa-Arg-His-Tyr-Leu-Asn-Leu-Val-Thr-Arg-Gln-Arg-Tyr-NH2 (peptide) | > 5000 |  |  | > 5000
Ac-Aib-Nle-Pqa-Arg-His-Tyr-Leu-Asn-Leu-Val-Thr-Arg-Gln-Arg-Tyr-NH2 (peptide) |  |  |  | > 5000
